Measured values from patent US20190134143A1.

Biological target: PDZ1/2 domain
Test: SPR, Biacore 3000; PDZ1/2 amine-coupled to the chip, peptide as analyte, 1:1 binding model

PDZ1/2 domain, sequence (P78352 65-246): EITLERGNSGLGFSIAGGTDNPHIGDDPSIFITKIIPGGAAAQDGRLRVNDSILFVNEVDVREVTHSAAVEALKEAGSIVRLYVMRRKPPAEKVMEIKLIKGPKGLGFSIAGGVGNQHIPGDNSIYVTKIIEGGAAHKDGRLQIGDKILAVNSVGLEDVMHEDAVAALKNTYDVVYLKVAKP

B1: control chimeric peptide NA-1 (peptide)
peptide: YGRKKRRQRRRKLSSIESDV
modifications: not checked
Kd: 75.3 nM
